Laboratory results as given in patent US9758785B2, “miR-520 microRNAs sensitize cancers to platinum-based therapy” (BAYLOR COLLEGE OF MEDICINE, priority 2012, dated 2017).
Entries after “also recorded” stand apart in the source; their conditions may differ.

Tests used:
OVCAR8 xenografts [1] = test: Survival and tumor response of xenografted mice treated with cisplatin; format: in vivo
Procedure: Permission to perform animal experiments was obtained from the Institutional Animal Care and Use Committee (IACUC) for Baylor College of Medicine. Eight-week female athymic (Foxn1^nu/nu) mice were purchased from the National Cancer Institute-Charles River and maintained on a standard diet ad lib. Each animal was inoculated intraperitoneally with 2.5×10^6 cells stably transfected with vector driving miR-520h, a non-targeting miRNA control or empty vector. Expression of miR-520h was measured in cell lines using Taqman assays immediately prior to inoculation. Tumor xenografts were followed weekly for tumor progression or regression using the Image Station In-Vivo FX system (Kodak Molecular Imaging Systems, New Haven, Conn.) using endogenous RFP encoded by the pLemiR vector as a tag. At each time point, mice were anesthetized with isoflurane and placed in an imaging chamber, after which, fluorescent intensity images with x-ray overlay were obtained and analyzed. At the completion of the study, mice were euthanized after sedation under isoflurane (Abbott Laboratories, North Chicago, Ill.). For experiments involving treatment, cisplatin was administered at 5 mg/kg to mice by tail vein injection weekly for 4 weeks, after which, 1.5 mg/kg was administered biweekly. Tumor volume and distribution for all animals in each experiment were documented and correlated with imaging results.
To determine whether expression of miR-520h impacted responses of ovarian cancer xenografts to systemically administered chemotherapy, the inventors inoculated Fox1nu/nu mice with 4×10^6 OVCAR8 cells stably expressing either miR-520h mimic, a non-targeting mimic control or empty vector. Once tumor implants were readily palpable, weekly administration of cisplatin equivalent to a dose of 5 mg/kg was initiated and given weekly for a total of 4 weeks. This course of treatment was specifically used to mimic the typical course experienced by women undergoing treatment for this illness. […] This observation is consistent with a sensitization of ovarian cancer cells to cisplatin by miR-520h mimic. Cisplatin was continued approximately biweekly at a reduced dose of 1.5 mg/kg until disease progression requiring euthanasia of animals by IACUC criteria. […] In contrast, median survival for animals xenografted with OVCAR8 cells stably transfected with empty vector or OVCAR8 cells stably expressing non-targeting microRNA control was 79 days and 90 days, respectively.

lin28A/B = test: Stemness gene expression in media that induce spheroid formation; format: cell-based, human; settings: OVCAR8 and SKOV3ip1
[2] = tested on: ovarian cancer cell lines; test: Cisplatin IC50 in multiple ovarian cancer cell lines; format: cell-based, human; settings: OVCAR8 and SKOV3ip1 cells, p<0.001
Procedure: Established ovarian cancer cell lines were obtained from the ATCC (OVCAR8, OVCAR5) and the University of Texas M.D. Anderson Cancer Center (HEYA8, SKOV3ip1). All cell lines were maintained at 37° C. in RPMI 1640 media (Invitrogen, Carlsbad, Calif.) supplemented with 10% fetal bovine serums (Hyclone, Logan, Utah) and 1% penicillin/streptomycin (Gibco, Carlsbad, Calif.). MicroRNA mimics and mimic controls (Dharmacon, Lafayette, Colo.) were transiently transfected into actively growing cultures using Lipofectamine 2000 (Invitrogen, Carlsbad, Calif.). After a 24-hour incubation, transfected cultures were washed, passaged and seeded into 96 well plates. Proliferation and apoptosis were measured at 72, 96 and 120 hours after transfection using standard assays (Cell Titer 96 Aqueous One; Caspase Glo 3/7; Promega, Madison, Wis.). pLemiR expression vectors (Open Biosystems/Thermo, Huntsville, Ala.) were prepared according to manufacturer's instructions and transfected into cells using Fugene 6 (Roche, Indianapolis, Ind.). Following transfection, stable clones were selected using puromycin (Invitrogen) at doses optimized for each line. […] Viability was assessed across a clinically relevant range of cisplatin concentrations using an MTS assay (Promega). […]

ATM = test: Western blot of ATM in OVCAR8 cells; format: cell-based, human; settings: for ATM degradation / cleavage product (ΔATM): OVCAR8, increasing concentrations of cisplatin; for ATM protein expression: OVCAR8 stably expressing the microRNA vs non-silencing control or empty vector
Procedure: Whole cell lysates equivalent to 30 μg of protein were resolved on 4-12% gradient SDS-PAGE. Resolved proteins were transferred onto PVDF membranes using the iBlot system (Invitrogen). Rabbit polyclonal and/or mouse monoclonal antibodies specifically recognizing ATM, phospo-ATM (Ser1981) CHK1 phospho-CHK1 (Ser216), p21, phospo-CHK2 ([…]), BCL2, XIAP, CDC25A were obtained from Cell Signaling Technologies (Danvers, Mass.). A rabbit polyclonal antibody recognizing FANCD2 was also purchased from Abcam (Cambridge, Mass.). Protein expression was visualized using species-specific, horseradish peroxidase-conjugated secondary antibody (Cell Signaling) and ECL Plus chemiluminescent substrate (Amersham, Buckinghamshire, UK).

SKOV3ip1 cells [3] = test: Proliferation assay (MTS, Cell Titer 96 Aqueous One); format: cell-based, human; settings: no cisplatin
Procedure: (§1) Established ovarian cancer cell lines were obtained from the ATCC (OVCAR8, OVCAR5) and the University of Texas M.D. Anderson Cancer Center (HEYA8, SKOV3ip1). All cell lines were maintained at 37° C. in RPMI 1640 media (Invitrogen, Carlsbad, Calif.) supplemented with 10% fetal bovine serums (Hyclone, Logan, Utah) and 1% penicillin/streptomycin (Gibco, Carlsbad, Calif.). MicroRNA mimics and mimic controls (Dharmacon, Lafayette, Colo.) were transiently transfected into actively growing cultures using Lipofectamine 2000 (Invitrogen, Carlsbad, Calif.). After a 24-hour incubation, transfected cultures were washed, passaged and seeded into 96 well plates. Proliferation and apoptosis were measured at 72, 96 and 120 hours after transfection using standard assays (Cell Titer 96 Aqueous One; Caspase Glo 3/7; Promega, Madison, Wis.). pLemiR expression vectors (Open Biosystems/Thermo, Huntsville, Ala.) were prepared according to manufacturer's instructions and transfected into cells using Fugene 6 (Roche, Indianapolis, Ind.). Following transfection, stable clones were selected using puromycin (Invitrogen) at doses optimized for each line. Rates of proliferation and apoptosis were examined in stable transfectants 24, 48, 72 and 96 hours after selected cells had been passaged and dispensed into 96 well plates. Viability was assessed across a clinically relevant range of cisplatin concentrations using an MTS assay (Promega). Cisplatin was obtained from Teva Pharmaceuticals (Irvine, Calif.).

SKOV3ip1 cells [4] = test: Apoptosis assay (Caspase Glo 3/7); format: cell-based, human
Procedure: as §1

HEYA8 cells [5] = test: Apoptosis assay (Caspase Glo 3/7); format: cell-based, human; settings: HEYA8, acute mimic transfection
Procedure: as §1

OVCAR5 [6] = test: Apoptosis assay (Caspase Glo 3/7); format: cell-based, human; settings: OVCAR5, mimic transfection
Procedure: as §1

OVCAR8 cells = test: Apoptosis assay (Caspase Glo 3/7); format: cell-based, human
Procedure: as §1

HEY cells [7] = test: Apoptosis assay (Caspase Glo 3/7); format: cell-based, human; settings: mimic transfection
Procedure: as §1

UPSC Ark1 cells = test: Cisplatin dose response in uterine cancer cells stably transfected with lentiviral vector; format: cell-based; settings: UPSC Ark1 cells expressing miR-520h vs non-targeting miRNA control
Procedure: UPSC Ark1 cells stably transfected with lentiviral vector driving the expression of either miR-520h or a non-targeting miRNA control were incubated with increasing concentrations of cisplatin.

HEYA8 cells [8] = test: Proliferation assay; format: cell-based, human; settings: HEYA8, acute mimic transfection
Procedure: as §1

OVCAR5 [9] = test: Proliferation assay; format: cell-based, human; settings: OVCAR5, mimic transfection
Procedure: as §1

HEY cells [10] = test: Proliferation assay; format: cell-based, human; settings: mimic transfection
Procedure: as §1

OVCAR8 xenografts [11] = test: Subcutaneous ovarian cancer xenograft; format: in vivo, mice; settings: subcutaneous inoculation vs non-targeting control or empty vector

B1: hsa-mir-520h MI0003175 (nucleic acid, listed as Homo sapiens)
chain: UCCCAUGCUGUGACCCUCUAGAGGAAGCACUUUCUGUUUGUUGUCUGAGAAAAAACAAAGUGCUUCCCUUUAGAGUUACUGUUUGGGA
modifications: expressed or natural sequence
notes: synthetic mimic or stably expressed from pLemiR vector; written miR-520g/h interchangeably
- Mean survival (OVCAR8 xenografts [1]; 4×10^6 OVCAR8 cells, cisplatin 5 mg/kg weekly 4 weeks then 1.5 mg/kg biweekly): 114 days
- Mean survival (OVCAR8 xenografts [1]; biweekly maintenance IV regimen of 5 mg/m^2 cisplatin): 130 days
- Xenograft response to cisplatin regimen (OVCAR8 xenografts [1]; cisplatin 5 mg/kg weekly for 4 weeks): nearly complete elimination of disease
- Increase in survival vs empty vector control (OVCAR8 xenografts [1]; cisplatin-treated xenografted animals): ~44%
- Median survival (OVCAR8 xenografts [1]; mice xenografted with 2.5×10^6 OVCAR8 cells expressing the mimic, cisplatin doses, controls 90 and 79 days): 113 days
- Implant size at necropsy (OVCAR8 xenografts [1]; vs non-targeting mimic control or empty vector): significantly smaller
- Spheroid-media-induced expression of stemness genes (lin28A/B) (lin28A/B): eliminates increased expression
- Reduction of IC50 for cisplatin [2]: ≤ 4 fold
- ATM degradation / cleavage product (ΔATM) (ATM): induced both the phosphorylation and degradation
- ATM degradation / cleavage product (ΔATM) (ATM; listed as MiR-520h): promotes a proteolytic degradation
- ATM degradation / cleavage product (ΔATM) (ATM; listed as miR-520g/h): increased levels
- Phosphorylated ATM level (ATM; OVCAR8 stably expressing the microRNA): decreased levels
- ATM protein expression (ATM): decreased levels
- ATM protein expression (ATM; listed as Mir-520g/h): markedly reduced
- ATM protein expression (ATM; listed as miR-520g/h): significantly less
- Proliferation (SKOV3ip1 cells [3]; SKOV3ip1, acute mimic transfection): significantly reduced
- Proliferation (SKOV3ip1 cells [3]; SKOV3ip1 clones stably expressing the microRNA): enhanced the proliferation
- Apoptosis (caspase 3/7) (SKOV3ip1 cells [4]; SKOV3ip1, acute mimic transfection, no cisplatin): decreasing apoptosis
- Caspase 3/7 expression (SKOV3ip1 cells [4]; SKOV3ip1 clones stably expressing the microRNA, no cisplatin): inhibited
- Apoptosis in presence of cisplatin (SKOV3ip1 cells [4]; SKOV3ip1 stable clones, cisplatin treatment): significantly increased
- Apoptosis (HEYA8 cells [5]): increase rates of apoptosis
- Apoptosis (OVCAR5 [6]): no impact
- Caspase 3/7 expression (OVCAR8 cells; OVCAR8 clones stably expressing the microRNA, no cisplatin): inhibited
- Apoptosis in presence of cisplatin (OVCAR8 cells; OVCAR8 stable clones, cisplatin up to 10 μg/mL, listed as miR-520g/h): significantly decreased; also recorded: significantly lower rates of apoptosis
- Apoptosis (HEY cells [7]): no impact
- Reduction of IC50 for cisplatin (UPSC Ark1 cells): more than 90%
- Proliferation (HEYA8 cells [8]): no significant impact
- Proliferation (OVCAR5 [9]): no impact
- Proliferation (HEY cells [10]): no impact
- Implant size total tumor burden (OVCAR8 xenografts [11]): significantly smaller
